This series can be described thus: yeast display, Sf9 membrane polyspecificity reagent, FACS + sequencing; frameworks hold sequencing errors. The gist of the method:
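Galactose-induced (36–48 hours) yeast carrying a synthetic nanobody display library were exposed to 10% biotinylated, detergent-solubilized Sf9 membrane reagent at 4 °C for 1 hour. FACS followed streptavidin microbead enrichment, using low and high (top ~1%) gates for expression (anti-HA) and reagent binding (streptavidin). Colony PCR, MiSeq 2 × 250 sequencing and CDR-length filtering followed. Labels for polyreactivity reflect the gate of origin.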
As to “QVQLVESGGGLVQAGGSLRLSCAASGRIFYSNAMGWYRQAPGKERELVAGINYRDGSTYYADSVKGRFTISRDNAKKTVYLQMNSLKPEDTAVYYCAKRRQSYPYKTSTWYSHYSWGQGTQVTVSS”, the “polyreactivity (PSR sort gate)” value is “high polyreactivity”.
On to “QVQLVESGGGLVQAGGSLRLSCAASGRIFYSNAMGWYRQAPGKERELVATISTGGSTYAESVKGRFTISRDNAKNTVYLQLISLTPEESAVYYCAVDEWRWRVGAVAYYYWGQGTQVTVSS”, for which the “polyreactivity (PSR sort gate)” value is reported as “low polyreactivity”.
As for “QVQLVESGGGLVQAGGSLRLSCAASGRIFYSNAMGWYRQAPGKERELVAVIRRTGSTYYADSVKGRFTISRDNAKNTVYLQMNSLKPEDTAVYYCATRIPYGRGGNRYDYWGQGTQVTVSS”, the entry is “low polyreactivity”; as for “QVQLVESGGGLVQAGGSLRLSCAASGRIFYSNVMGWYRQAPGKERELVAAIRFSGGGTYYADSVKGRFTITRDNAKNTVYLQMNSLKPEDTAVYYCAAEYYLRVSGRTYVTSHDYWGQGTQVTVSS”, “high polyreactivity”.
As for “QVQLVESGGGLVQAGGSLRLSCAASGRIFYSNVMGWYRQAPGKERELVAAISGRTGGTYYADSVKGRFTISRDNAKNTVYLQMNSLKPEDTAVYYCNAYSLRHHHSDYWGQGTQVTVSS”, the entry is “low polyreactivity”; as for “QVQLVESGGGLVQAGGSLRLSCAASGRIFYSYAMGWYIPAPGKERELVAAITVSGGSTFYADSVKGRFTISRDNAKNTVYLQMNSLKPEDTAVYYCAAQSTTIEDGWYVEYNYWGQGTQVTVSS”, “high polyreactivity”; as for “QVQLVESGGGLVQAGGSLRLSCAASGRIFYSYAMGWYREAPGKERELVAAIDESDGSTYYADSVKGRFTISRDNAKNTVYLQMNSLKQEDTADYYCNADLTLGGEFDYWGHGTQVTVSS”, “low polyreactivity”.
To “QVQLVESGGGLVQAGGSLRLSCAASGRIFYSYAMGWYRQAPGKEREFVAAISRSGARTYYADSVKGRFTISRDNAKNTVYLQMNSLKPEDTAVYYCAADDFSTVEYDYWGQGTQVTVSS” belongs “low polyreactivity”; to “QVQLVESGGGLVQAGGSLRLSCAASGRIFYSYAMGWYRQAPGKERELVAAIDESDGSPYYADSVKGRFTISRDNAKNTVYLQMNSLKPEDTAVYYCAADSLLVLFDYWGQGTQVTVSS”, “low polyreactivity”.
On to “QVQLVESGGGLVQAGGSLRLSCAASGRIFYSYAMGWYRQAPGKERELVAAIDESDGSTYYADSVKGRFTISRDNAKNTVYLQMNSLKPEDTAVYYCAAGYLDVLWLLDLLQLYGYWGQGTQVTVSS”, for which the “polyreactivity (PSR sort gate)” value is listed as “low polyreactivity”.
On to “QVQLVESGGGLVQAGGSLRLSCAASGRIFYSYAMGWYRQAPGKERELVAAISWSGGRTYYADSVKGRFTISRDNAKNNVYLQMNSLKPEDTAVYYCARRGYYYDYWGQGTQVTVSS”, for which the “polyreactivity (PSR sort gate)” value was “high polyreactivity”.
As for “QVQLVESGGGLVQAGGSLRLSCAASGRIFYSYAMGWYRQAPGKEWELVAVNTGGGRTYYADSVKGRFTISRDNAKNTVYLQMNSLKPEDTAVYYCAYRYGGTFRYDYWGQGTQVTVSS”, the entry is “high polyreactivity”; as for “QVQLVESGGGLVQAGGSLRLSCAASGRIFYSYAMGWYRQATGKEREMVASISRSGAITNYADSVKGRFTISRDNAKNPVYLQMNSLIPEDTAVYYCAARLRRVYPPYDYWGQGTQVTVSS”, “high polyreactivity”.
To “QVQLVESGGGLVQAGGSLRLSCAASGRIFYSYARGWYRQAPGKERELVAAIDESDGSTYYADSVKGRFTISRDNAKNTVYLQMNSLKPEDTAVYYCAADSLLVLFDYWGQGTQVTVSS” belongs “low polyreactivity”; to “QVQLVESGGGLVQAGGSLRLSCAASGRIFYSYVMGWYRQAPGKERELVAAIRWGGGSTYYADSVKGRFTISPDNPKNTVYLQMNSLKPEDTAVYYCAAAYNWRKYDYWGQGTQVTVSS”, “high polyreactivity”.
To “QVQLVESGGGLVQAGGSLRLSCAASGRIFYTNAMGWYRQAPGKERELVAAIKWNGGRTYYADSVKGRFTISRDNAKNTVYLQMNSLKPEDTAVYYCAAGAPVDPWYSGLVVLDGMDYWGQGTQVTVSS” belongs “low polyreactivity”.
“QVQLVESGGGLVQAGGSLRLSCAASGRIFYTNAMGWYRQAPGKERELVAVISWGGDTTYYADSVKGRFTISRDNAKNTVYLQMNSLKPEDTAVYYCNADWGPTYEIYDSWGQGTQVTVSS”: the “polyreactivity (PSR sort gate)” value is on record as “low polyreactivity”.
As for “QVQLVESGGGLVQAGGSLRLSCAASGRIFYTNVMGWYRQAPGKERELVAAISTGGGRTYYADSVKGRFTISRDNAKNTVYLQMNSLKPEDTAVYYCAASGRYAIVWGDQYYGYYYWGQGTQVTVSS”, the entry is “high polyreactivity”.
In the case of “QVQLVESGGGLVQAGGSLRLSCAASGRIFYTYAMGWYRQAPGKERELVAAISSRTGSTYYADSVKGRFTISRDNAKNTVYLQMNSLKPEDTAVYYCNAYRLRYGYDYWGQGTQVTVSS”, the “polyreactivity (PSR sort gate)” value is recorded as “high polyreactivity”.
As for “QVQLVESGGGLVQAGGSLRLSCAASGRIFYTYAMGWYRQAPGKERELVAVISSGGSTNYADSVKGRFTISRDNAKNTVYLQMNSLKPEDTAVYYCAAYGTKWGRGFYITGYGYWGQGTQVTVSS”, the entry is “low polyreactivity”; as for “QVQLVESGGGLVQAGGSLRLSCAASGRIFYVNAMAWYRQAPGTEREFVAAIRVDGASTYYADSVKGRFTFSRDNAKNTVYLQMNSLKPEDTAVYYCAARTRSYWSTTYYYWGQGTEVTVSS”, “high polyreactivity”.
As to “QVQLVESGGGLVQAGGSLRLSCAASGRIFYVNAMGWYRQAPGKERELVAAIDVNDGITYYADSVKGRFTISRDNAKNTVYLQMNSLKPEDTAVYYCAAETLYWNDIIWDVEYWGQGTQVTVSS”, the “polyreactivity (PSR sort gate)” value was “high polyreactivity”.
As for “QVQLVESGGGLVQAGGSLRLSCAASGRIFYVNTMGWYRPAPGKERELVATITWGGDSTYYADSVKGRFTISRDNAKNTVYLQMNSLKPEDTAVYYCAADHHDIRLNTRRNDYRGQGTQVTVSS”, the entry is “low polyreactivity”; as for “QVQLVESGGGLVQAGGSLRLSCAASGRIFYVYAMGWYRAPGKERELVASISYIGGSTYYADSVKGRFTISRDNAKNTVYLQMNSLKPEDTAVYYCATDYYGYTVSYLVPSWPDDYWGQGTQVTVSS”, “low polyreactivity”.
To “QVQLVESGGGLVQAGGSLRLSCAASGRIFYVYAMGWYRQAPGKERELVAAISWSGGGTYYADSVKGRFTISRDNAKNTVYLQMNSLKPEDTAVYYCATVSGVPPGSHDYWGQGTQVTVSS” belongs “low polyreactivity”.
To “QVQLVESGGGLVQAGGSLRLSCAASGRIFYVYAMGWYRQAPGKERELVAAITISGGSTYYADSVKGRFTISRDNAKNTVYLQMNSLKPEDTAVYYCAAGTQAHAYVVRPIEMDYWGQGTQVTVSS” belongs “low polyreactivity”.
In the case of “QVQLVESGGGLVQAGGSLRLSCAASGRIFYVYAMGWYRQAPGKERELVATISWSAGITYYADSVKGRFTISRDNAKNTVYLQMNSMKPEDTAVYYCAKVGRYTYSGQYDYWGQGTQVTVSS”, the “polyreactivity (PSR sort gate)” value is recorded as “high polyreactivity”.
To “QVQLVESGGGLVQAGGSLRLSCAASGRIFYVYTMGWYRQARGKERELVAAISWSGGSTHYADSVKGRFTISRDNAKNTVYLQMNSLKTEYTAVYYCNKGVVSRVAFEYWGQGTQVTVSS” belongs “low polyreactivity”; to “QVQLVESGGGLVQAGGSLRLSCAASGRIFYWNAMGWYRQAPGKERELVAGITGGGNTNYADSVKGRFTISRDNAKNTVYLQMNSLKPEDTAVYYCATRTNRRRSYDYWGQGTQVTVSS”, “high polyreactivity”.
As for “QVQLVESGGGLVQAGGSLRLSCAASGRIFYWYAMGWYRQAPGKERELVATINQSGSSTYYADSVKGRFTISRDNAKNTVYLQMYSLKPEDTAVYYCNAGGQRPHSVGLVGEMGYWGQGTKVTVSS”, the entry is “high polyreactivity”; as for “QVQLVESGGGLVQAGGSLRLSCAASGRIFYYAMGWYRPAPGKERELVAAISRSGGSTYYADSVKGRFTISRDNAKNTVYLQMNSLKPEDTAVYYCAAVIYIYPISKRDYWGQGTQVTVSS”, “low polyreactivity”.
As for “QVQLVESGGGLVQAGGSLRLSCAASGRIFYYNAMGGYTQAPGKERELVAAIDWSGGSTYYADSVKGRITISRANAKNTVYLQMNSLKPEDTAVYYCNAPFRYVPPEGSGPYDYWGQGTQVTVSS”, the entry is “low polyreactivity”; as for “QVQLVESGGGLVQAGGSLRLSCAASGRIFYYNAMGWYRQAPGKEREFVAAISSGGGSTYYADSVKGRFTISRDNAKNTVYLQMNSLKPEDTAVYYCAADGYYYDYYYYWGDYGYWGQGTQVTVSS”, “high polyreactivity”; as for “QVQLVESGGGLVQAGGSLRLSCAASGRIFYYNAMGWYRQAPGKERELVAAITRGGSTYYADSVKGRFTISRDNAKNTVYLQMNCLKPVDTAVYYCAADRPGYSRYTTSVKGQRYYYWGQGTQVTVSS”, “high polyreactivity”.
For “QVQLVESGGGLVQAGGSLRLSCAASGRIFYYNAMGWYRQAPGKERELVAAITSGGSTNYADSVKGRFSISRDNAKNTVYLQMNSLNPEDTAVYYCAADYYYYVAGVHYDYWGQGTQVTVSS”, the “polyreactivity (PSR sort gate)” value was “low polyreactivity”.
To “QVQLVESGGGLVQAGGSLRLSCAASGRIFYYNAMGWYRQAPGKERELVAAITYSGTSTYYADSVKGRFTISRDNAKNTVYLQMNSLKPEDSAVYYCAVDSTDQAPPTYDYWGQGTQVTVSS” belongs “low polyreactivity”; to “QVQLVESGGGLVQAGGSLRLSCAASGRIFYYNAMGWYRQAPGKERELVAGITSRGRSTYADSVKGRFTISRDNAKNTVYLQMNSLKPEDTAVYYCAAVYRLWGKDYDYWGQGTQVTVSS”, “high polyreactivity”.
To “QVQLVESGGGLVQAGGSLRLSCAASGRIFYYNAMGWYRQAPGKERELVASITGSGGSTYYADSVKGRFTISRDNAKNTVYLQMNSLKPEDTAVYYCANREYLYPYYYVAKYDYWGQGTQVTVSS” belongs “low polyreactivity”.
For “QVQLVESGGGLVQAGGSLRLSCAASGRIFYYNDMGWYRQAPGKERELVAAITWTDDGTYYADSVKGRFTISRDNAKNTVFLQMNSLKPEDTAVYYCAAESFYGFEYWGQGTQVTVSS”, the “polyreactivity (PSR sort gate)” value is listed as “low polyreactivity”.
As for “QVQLVESGGGLVQAGGSLRLSCAASGRIFYYNSKGWYRQAPGKERELVAAITSGDNTKYADSVKGRFTISRDKAKNTVYLQMNSLKPEDTAVYYCAARRYAPYQRRMDYWGQGTQVTVSS”, the entry is “high polyreactivity”.

(Values after the nanobody polyreactivity screen of Harvey et al. (2022).)
